From publication doi:10.1101/2021.06.07.447357 come the findings set out here.

The stoichiometry N is a count of units in the complex or per binding partner.

Like-named read-outs stand apart in the source and are kept apart here.

The target of assay [1] is 31 kDa recombinant Tic40s form (Brassica napus). Description: dynamic light scattering.
For assay [2] the target is unchanged. Description: dynamic light scattering. The source holds these as a separate data set.
For assay [3], the target named is Recombinant Tic40s with a carboxyl-terminal histidine tag (40 kDa form) (Brassica napus). Description: AUC.
Assay [4] shares this target. Description: AUC. The source holds these as a separate data set.

In the case of “31 kDa recombinant Tic40s form (domain or fragment)”, the stoichiometry N in assay [1] was determined as 2; in assay [2] it was 4.
Regarding “Recombinant Tic40s with a carboxyl-terminal histidine tag (40 kDa form) (domain or fragment)”, the stoichiometry N in assay [3] came out at 3; in assay [4], 4.
